# Results: US20080274993
# Test system: DSCR1-FLAG (human Down syndrome critical region 1, C-terminal FLAG epitope)
# Sequence (chain, as listed by the source): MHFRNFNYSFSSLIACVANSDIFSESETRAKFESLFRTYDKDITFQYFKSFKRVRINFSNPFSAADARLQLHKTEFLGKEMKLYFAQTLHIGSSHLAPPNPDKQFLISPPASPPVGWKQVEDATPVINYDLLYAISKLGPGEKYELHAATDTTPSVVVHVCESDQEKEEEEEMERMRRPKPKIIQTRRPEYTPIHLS
substance,measurement,value
calcineurin A (CnA),NFATc1 phosphorylation status (Western blot of extracts of activated HUVECs),a shift from the dephosphorylated form of NFATc1 to the phosphorylated form in response to DSCR1
